Results reported in the RNAGym collection of RNA variant scans (doi:10.1073/pnas.2313332121).
Variants at the floor of the assay were thinned out.

B1: TPR 5TU (parent)
chain: GGAUCUUCUCGAUCUAACAAAAAAGACAAAUCUGCCACAAAGCUUGAGAGCAUCUUCGGAUGCAGAGGCGGCAGCCUUCGGUGGCGCGAUAGCGCCAACGUUCUCAACUAUGACACGCAAAACGCGUGCUCCGUUGAAUGGAGUUUAUCAUG

Variants of: B1
Experiment: polymerase ribozyme fitness, log enrichment relative to wild type (log ratio); higher = more active; in vitro selection for triplet polymerase activity
Summary of the method: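 Genotype fitness is the logarithm of its enrichment divided by wild-type enrichment, using inverse-variance-weighted averages of replicates. That logarithm is base 2. Enrichment was measured by Illumina sequencing of input and output libraries from one triplicate in vitro selection round, with frozen incubation at −7 °C, on PCR-built, transcribed mutant libraries of each subunit of a heterodimeric triplet polymerase ribozyme, retaining genotypes with ≥10 input reads and ≥1 read per output.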
In the case of U6G U45C C76A C93G C103A, the “polymerase ribozyme fitness (log ratio)” value is reported as at most -4.2. In the case of C5U C69A, the “polymerase ribozyme fitness (log ratio)” value is reported as -2.55. For U6G U9G U31A G48A C76G C87A U111C G140U, the “polymerase ribozyme fitness (log ratio)” value was at most -4.2. With U6C C18G A23G C27U A30G C54U C63A G84A C103U the “polymerase ribozyme fitness (log ratio)” value was at most -4.2. With U6C C35G A66G C96U U109A G126U the “polymerase ribozyme fitness (log ratio)” value was at most -4.2. In the case of C5U C99U, the “polymerase ribozyme fitness (log ratio)” value is reported as 0.209. In the case of U6C A49U C63G, the “polymerase ribozyme fitness (log ratio)” value is reported as -2.48. In the case of C5U U139G, the “polymerase ribozyme fitness (log ratio)” value is reported as 0.221. With U6G U7C A49G G71A C93G the “polymerase ribozyme fitness (log ratio)” value was at most -4.2. For U6A A20C A49U A52C C79U C93A C118G, the “polymerase ribozyme fitness (log ratio)” value was at most -4.2. For U6G U31G A73G G86A A137U, the “polymerase ribozyme fitness (log ratio)” value was at most -4.2. With U6G G11A A19C A21C A24G C36G U56A U82A A142C the “polymerase ribozyme fitness (log ratio)” value was at most -4.2. With U6G C57A U61A G65A A121U G126A the “polymerase ribozyme fitness (log ratio)” value was -3.12. With U6G C35U A91G A98G the “polymerase ribozyme fitness (log ratio)” value was -4.08. With U6G A47G U53G U55A C76G C85G C103G G128U C129A U145G the “polymerase ribozyme fitness (log ratio)” value was at most -4.2. In the case of U6A U33A U55G C57U C79G G92A C131U, the “polymerase ribozyme fitness (log ratio)” value is reported as at most -4.2. With U6G A28U C38U A66G C95G A120U A150U the “polymerase ribozyme fitness (log ratio)” value was at most -4.2. With C5U C85U U127C U145A the “polymerase ribozyme fitness (log ratio)” value was -2.5. In the case of U6C C10A C14G A49C C57U A91C C114U, the “polymerase ribozyme fitness (log ratio)” value is reported as at most -4.2. In the case of U6C G71A G92A A97G G141U, the “polymerase ribozyme fitness (log ratio)” value is reported as at most -4.2. In the case of U6A A64U A66G G84A, the “polymerase ribozyme fitness (log ratio)” value is reported as at most -4.2. For U6G U53A G80U, the “polymerase ribozyme fitness (log ratio)” value was at most -4.2. For U6A A12G A30C A66U C95A A106G A120G G126C A150U, the “polymerase ribozyme fitness (log ratio)” value was at most -4.2. With U6G A12U G42C C76U C96G U134G U146G the “polymerase ribozyme fitness (log ratio)” value was at most -4.2. In the case of U6C G48C G59U U145C, the “polymerase ribozyme fitness (log ratio)” value is reported as -0.905. For C5U C18G G59A C93U C132U, the “polymerase ribozyme fitness (log ratio)” value was -2.33. With U6C A21G C27A C54U G80C C87A U109C A147U the “polymerase ribozyme fitness (log ratio)” value was at most -4.2. For U6C U78G U111G U134C, the “polymerase ribozyme fitness (log ratio)” value was -4.14. For U6A C125G, the “polymerase ribozyme fitness (log ratio)” value was -0.431. With U7A A17U G25C G88C C116A the “polymerase ribozyme fitness (log ratio)” value was at most -4.2. For U6A A22U C27A C54A C57A C76U U78C C87U G128C A137G G141C, the “polymerase ribozyme fitness (log ratio)” value was at most -4.2. In the case of U6A A23C C76G G94A G141C G152U, the “polymerase ribozyme fitness (log ratio)” value is reported as at most -4.2. With U6A A17C A52U G84U A89C G141A the “polymerase ribozyme fitness (log ratio)” value was -3.87. For C5U C35U U77G C85G A89U A110C U144G, the “polymerase ribozyme fitness (log ratio)” value was at most -4.2. For C5U U13G A22U U55A G65U G70U C87A C95U A98G A137C G141A G143C, the “polymerase ribozyme fitness (log ratio)” value was at most -4.2. For U6C A40U C51U A52C C99U G112C, the “polymerase ribozyme fitness (log ratio)” value was at most -4.2. In the case of U6A G25C G141A U146A, the “polymerase ribozyme fitness (log ratio)” value is reported as -2.69. With C5U C14U A26U C118G A121U the “polymerase ribozyme fitness (log ratio)” value was -3.94. With U6A C108U U134C the “polymerase ribozyme fitness (log ratio)” value was -3.33. With U6C A47U the “polymerase ribozyme fitness (log ratio)” value was -0.576. With U6G A26U A37C G50C U53A C57A U82G C103G the “polymerase ribozyme fitness (log ratio)” value was at most -4.2. With U6A A19G C99A the “polymerase ribozyme fitness (log ratio)” value was -2.14. In the case of U6A A17G G58C A60C C69U C118U U146C, the “polymerase ribozyme fitness (log ratio)” value is reported as -4.14. For C5U C18U C85A, the “polymerase ribozyme fitness (log ratio)” value was -0.0024. For U6A A12U A20U A41U A89C A120U, the “polymerase ribozyme fitness (log ratio)” value was -3.91. In the case of U6G U15A C95G C96U U101G C103A C131A C149A, the “polymerase ribozyme fitness (log ratio)” value is reported as at most -4.2. In the case of U6G A40U A115G, the “polymerase ribozyme fitness (log ratio)” value is reported as -1.66. With U6G C35U G58C A73G G140U the “polymerase ribozyme fitness (log ratio)” value was at most -4.2. With U6G C57A U102G the “polymerase ribozyme fitness (log ratio)” value was -1.76. In the case of U6G A12C C35G A60C C75G A110G, the “polymerase ribozyme fitness (log ratio)” value is reported as at most -4.2. For U6A U7G U13A C35A C54A G71U A91U U101A U127C G141U, the “polymerase ribozyme fitness (log ratio)” value was at most -4.2. In the case of U6G C93A A98G, the “polymerase ribozyme fitness (log ratio)” value is reported as -1.61. In the case of U6C A23U U31G G62A C95U C99G G100U C114U C129U, the “polymerase ribozyme fitness (log ratio)” value is reported as at most -4.2. In the case of C5U C57U C87A A91C, the “polymerase ribozyme fitness (log ratio)” value is reported as at most -4.2. With U6G A73G C87U G136U the “polymerase ribozyme fitness (log ratio)” value was -2.92. For U6C C36A G67C C85U G124C C132U, the “polymerase ribozyme fitness (log ratio)” value was at most -4.2. For U6A G50C G86U U102C A121C, the “polymerase ribozyme fitness (log ratio)” value was at most -4.2. With U6C U31C A119G the “polymerase ribozyme fitness (log ratio)” value was -0.646. In the case of U6G A17C A37G A52C C54U C96A A122U U134C, the “polymerase ribozyme fitness (log ratio)” value is reported as at most -4.2. In the case of U6C G50C G59A G68U A137C, the “polymerase ribozyme fitness (log ratio)” value is reported as at most -4.2. In the case of U6G C10A A40G A60G C75A G80C A107U G126A G133U U139G G143C, the “polymerase ribozyme fitness (log ratio)” value is reported as at most -4.2. With U6A C85U C95A A120G the “polymerase ribozyme fitness (log ratio)” value was -1.78. With U6C U55G the “polymerase ribozyme fitness (log ratio)” value was -0.825. With U6C C76G G124U G128U the “polymerase ribozyme fitness (log ratio)” value was at most -4.2. In the case of U6C U45A, the “polymerase ribozyme fitness (log ratio)” value is reported as -3.75. For U6C A22U U31G C93A C114G, the “polymerase ribozyme fitness (log ratio)” value was at most -4.2. With U6G A40C U144A the “polymerase ribozyme fitness (log ratio)” value was 0.287. For C5U G62C G88C, the “polymerase ribozyme fitness (log ratio)” value was at most -4.2. In the case of U6A U15G G46C C76U C93G, the “polymerase ribozyme fitness (log ratio)” value is reported as at most -4.2. With U6G A20U G25A U31G C87A C96U C129A G136A G140C A150C the “polymerase ribozyme fitness (log ratio)” value was at most -4.2. With C5U C14G G59C C63U C85U U101G the “polymerase ribozyme fitness (log ratio)” value was -3.47. For U6G A52G A106C C116A, the “polymerase ribozyme fitness (log ratio)” value was -0.169. In the case of U6A A17G C27U A66U U145A, the “polymerase ribozyme fitness (log ratio)” value is reported as at most -4.2. In the case of U6A A24U A60G, the “polymerase ribozyme fitness (log ratio)” value is reported as 0.116. With C5U U7G C14G A21C U56G C57A G58C C103A A142U U145C the “polymerase ribozyme fitness (log ratio)” value was at most -4.2. In the case of U6A C18U A49C C79A A91G U101C C103A, the “polymerase ribozyme fitness (log ratio)” value is reported as at most -4.2. With U6A C118G the “polymerase ribozyme fitness (log ratio)” value was -1.66. In the case of U6A U45A, the “polymerase ribozyme fitness (log ratio)” value is reported as -2.51. With U7A A28C C57U C87G C95U C125A the “polymerase ribozyme fitness (log ratio)” value was at most -4.2. In the case of U6G A20C C38U C57U U61A C76G G94C A97G U145G, the “polymerase ribozyme fitness (log ratio)” value is reported as at most -4.2. With U6G A21U C93U U127G the “polymerase ribozyme fitness (log ratio)” value was -3.85. For C5U G62A U90G A138G A142U, the “polymerase ribozyme fitness (log ratio)” value was at most -4.2. With U6G G94A A115C the “polymerase ribozyme fitness (log ratio)” value was -1.5.
